These results are taken from paper PMC4607316 (Nature, 2015).

For the experiment, the target named is syntaxin-1A (endogenous, cultured mouse neurons) (mouse (endogenous in cultured …, UniProt O35526 1-288)). Briefly: co-IP.
Chain of syntaxin-1A (endogenous, cultured mouse neurons) (mouse (O35526 whole entry): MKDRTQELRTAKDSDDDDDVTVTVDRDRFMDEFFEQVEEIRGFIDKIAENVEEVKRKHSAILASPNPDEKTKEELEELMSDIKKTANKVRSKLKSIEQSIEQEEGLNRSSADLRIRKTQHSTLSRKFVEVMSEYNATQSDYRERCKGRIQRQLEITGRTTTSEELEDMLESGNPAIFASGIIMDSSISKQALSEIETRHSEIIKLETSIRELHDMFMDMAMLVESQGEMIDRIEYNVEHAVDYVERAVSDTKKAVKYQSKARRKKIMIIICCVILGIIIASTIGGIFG

B1: Syt1 E295A, Y338W (natural protein, rat, UniProt P21707 1-421, looked up)
chain: MVSASHPEALAAPVTTVATLVPHNATEPASPGEGKEDAFSKLKQKFMNELHKIPLPPWALIAIAIVAVLLVVTCCFCVCKKCLFKKKNKKKGKEKGGKNAINMKDVKDLGKTMKDQALKDDDAETGLTDGEEKEEPKEEEKLGKLQYSLDYDFQNNQLLVGIIQAAELPALDMGGTSDPYVKVFLLPDKKKKFETKVHRKTLNPVFNEQFTFKVPYSELGGKTLVMAVYDFDRFSKHDIIGEFKVPMNTVDFGHVTEEWRDLQSAEKEEQEKLGDICFSLRYVPTAGKLTVVILAAKNLKKMDVGGLSDPYVKIHLMQNGKRLKKKKTTIKKNTLNPWYNESFSFEVPFEQIQKVQVVVTVLDYDKIGKNDAIGKVFVGYNSTGAELRHWSDMLANPRRPIAQWHTLQVEEEVDAMLAVKK
In the case of B1, the “reduction of co-immunoprecipitated Syt1 against Syt1 WT” value (from here on “reduction”) is about 50%.

B2: Syt1 R281A, R398A, R399A (natural protein, rat, UniProt P21707 1-421, looked up)
chain: MVSASHPEALAAPVTTVATLVPHNATEPASPGEGKEDAFSKLKQKFMNELHKIPLPPWALIAIAIVAVLLVVTCCFCVCKKCLFKKKNKKKGKEKGGKNAINMKDVKDLGKTMKDQALKDDDAETGLTDGEEKEEPKEEEKLGKLQYSLDYDFQNNQLLVGIIQAAELPALDMGGTSDPYVKVFLLPDKKKKFETKVHRKTLNPVFNEQFTFKVPYSELGGKTLVMAVYDFDRFSKHDIIGEFKVPMNTVDFGHVTEEWRDLQSAEKEEQEKLGDICFSLAYVPTAGKLTVVILEAKNLKKMDVGGLSDPYVKIHLMQNGKRLKKKKTTIKKNTLNPYYNESFSFEVPFEQIQKVQVVVTVLDYDKIGKNDAIGKVFVGYNSTGAELRHWSDMLANPAAPIAQWHTLQVEEEVDAMLAVKK
Take B2: the “reduction” value was about 50%.

B3: Syt1 R398Q, R399Q (natural protein, rat, UniProt P21707 1-421, looked up)
chain: MVSASHPEALAAPVTTVATLVPHNATEPASPGEGKEDAFSKLKQKFMNELHKIPLPPWALIAIAIVAVLLVVTCCFCVCKKCLFKKKNKKKGKEKGGKNAINMKDVKDLGKTMKDQALKDDDAETGLTDGEEKEEPKEEEKLGKLQYSLDYDFQNNQLLVGIIQAAELPALDMGGTSDPYVKVFLLPDKKKKFETKVHRKTLNPVFNEQFTFKVPYSELGGKTLVMAVYDFDRFSKHDIIGEFKVPMNTVDFGHVTEEWRDLQSAEKEEQEKLGDICFSLRYVPTAGKLTVVILEAKNLKKMDVGGLSDPYVKIHLMQNGKRLKKKKTTIKKNTLNPYYNESFSFEVPFEQIQKVQVVVTVLDYDKIGKNDAIGKVFVGYNSTGAELRHWSDMLANPQQPIAQWHTLQVEEEVDAMLAVKK
For B3, the “reduction” value was about 50%.
